Data reported in FireProtDB (doi:10.1110/ps.041111405).

Conditions: Homo sapiens; pH 7; 37 °C; GdnHCl; Fluorescence; Sodium phosphate 10 mM; transition: 3; whole UniProt chain shown

B1: Gamma-crystallin D wild type, P07320 (protein)
chain: MGKITLYEDRGFQGRHYECSSDHPNLQPYLSRCNSARVDSGCWMLYEQPNYSGLQYFLRRGDYADHQQWMGLSDSVRSCRLIPHSGSHRIRLYEREDYRGQMIEFTEDCSCLQDRFRFNEIHSLNVLEGSWVLYELSNYRGRQYLLMPGDYRRYQDWGATNARVGSLRRVIDFS
  denaturant m value: 3.1 kcal/mol/M
  denaturant midpoint (higher = more stable): 2.8 M
  unfolding free energy: 8.9 kcal/mol
